This note sets out measurements from patent US20260242497A1 (VIAL HEALTH TECHNOLOGY, published 2026).

A word on the Kd: it is a measure of binding affinity in units of concentration. For orientation: IC50 means the concentration that inhibits the measured activity by half. As a reminder, the kon is the rate constant with which the complex forms.

Assay [1] concerns the target T1, human FcRn (human, UniProt P55899 24-297; P61769 21-119).
T1 construct: also called neonatal Fc receptor
Put plainly: SPR, Biacore 8K, CM5 chip, antibody immobilised, human FcRn as analyte, pH 6.0.

Assay [2] deals with T2, TL1A (antigen of Examples 1 and 2, species not stated) (UniProt O95150 57-251, limits assumed).
T2 construct: also called recombinant purified antigen; TNFSF15
T2 sequence (looked up): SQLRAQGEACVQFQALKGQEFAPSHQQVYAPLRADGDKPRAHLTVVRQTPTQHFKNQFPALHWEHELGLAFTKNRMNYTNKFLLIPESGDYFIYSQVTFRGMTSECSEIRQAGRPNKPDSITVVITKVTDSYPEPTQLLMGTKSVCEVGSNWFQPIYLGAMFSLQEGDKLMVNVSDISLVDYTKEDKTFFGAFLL
The experiment in a line: SPR, Biacore 8K, Protein A chip, antibody captured, antigen as analyte. A general note: Surface plasmon resonance follows binding to a sensor surface in real time, without labels.

The target in assay [3] is T3, biotinylated recombinant human TL1A (human, UniProt O95150 57-251, limits assumed, biotinylated (sites not given)).
T3 sequence: T2 sequence (looked up)
The experiment in a line: competition ELISA, blocks biotinylated human TL1A (3.5 nM) binding to coated DR3/Fc. (ELISA stands for enzyme-linked immunosorbent assay.)

Assay [4] has as its target T2, TL1A (antigen of Examples 1 and 2, …). The experiment in a line: SPR, Biacore 8K, Protein A chip, antibody captured, antigen as analyte (second line).
The target of assay [5] is T3, biotinylated recombinant human TL1A. The experiment in a line: competition ELISA, blocks biotinylated human TL1A (3.5 nM) binding to coated DcR3/Fc.
The target of assay [6] is T1, human FcRn. Put plainly: SPR, Biacore 8K, CM5 chip, antibody immobilised, human FcRn as analyte, pH 6.0, steady-state affinity fit.
The target in assay [7] is T2, TL1A (antigen of Examples 1 and 2, …). Put plainly: BLI (Gator Bio), tagged antibody on Strep-Tactin XT probes, recombinant purified antigen as analyte, 25 C.
For assay [8] the target is unchanged. The experiment in a line: cell-based or functional assay.
In assay [9] the target is T1, human FcRn. Put plainly: SPR, Biacore 8K, CM5 chip, FcRn, pH 6.0.

Residue numbers refer to the chain shown, from its start. In names and notes the source's numbering stands. Several values for one entry are separate records, joined by “and”; a condition that tells them apart may be missing. Identical values can stand only once. Some results are limits rather than exact numbers.

T1 sequence (P55899 24-297 limits assumed, chain 1 of 2): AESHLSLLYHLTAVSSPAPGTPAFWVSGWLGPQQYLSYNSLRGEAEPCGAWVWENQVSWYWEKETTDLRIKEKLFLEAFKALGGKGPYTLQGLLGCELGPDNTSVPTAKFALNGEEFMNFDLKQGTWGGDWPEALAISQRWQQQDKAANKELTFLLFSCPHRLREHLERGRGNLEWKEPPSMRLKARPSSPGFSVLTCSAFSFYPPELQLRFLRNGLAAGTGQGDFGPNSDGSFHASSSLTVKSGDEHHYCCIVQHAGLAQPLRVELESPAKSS
T1 sequence (P61769 21-119 limits assumed, chain 2 of 2): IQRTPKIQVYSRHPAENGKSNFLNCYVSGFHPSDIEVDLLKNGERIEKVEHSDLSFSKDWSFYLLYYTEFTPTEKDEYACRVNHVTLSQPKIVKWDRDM

B1: AB_IL15_AI_02_077_HL9 (antibody, human IgG1, kappa, L234A L235A)
heavy: EVQLVESGGGLVQPGGSLRLSCAASEFTFSNYAMSWVRQAPGKGLEWVATISRGGDYHYYPDSVKGRFTISRDNSKNTLYLQMNSLRAEDTAVYYCARRVSMITGGWAHDYWGQGTLVTVSSASTKGPSVFPLAPSSKSTSGGTAALGCLVKDYFPEPVTVSWNSGALTSGVHTFPAVLQSSGLYSLSSVVTVPSSSLGTQTYICNVNHKPSNTKVDKRVEPKSCDKTHTCPPCPAPEAAGGPSVFLFPPKPKDTLMISRTPEVTCVVVDVSHEDPEVKFNWYVDGVEVHNAKTKPREEQYNSTYRVVSVLTVLHRDWLNGKEYKCKVSNKALPAPIEKTISKAKGQPREPQVYTLPPSREEMTKNQVSLTCLVKGFYPSDIAVEWESNGQPENNYKTTPPVLDSDGSFFLYSKLTVDKSRWQQGNVFSCSVLHEALKFHYTQKSLSLSPGK
light: DVVMTQSPLSLPVTLGQPASISCRSSQSIVDITGNTYLEWYQQRPGQSPRLLIYKVFNRFSGVPDRFSGSGSGTDFTLKISRVEAEDVGVYYCFQDSFVPYTFGQGTKLEIKRTVAAPSVFIFPPSDEQLKSGTASVVCLLNNFYPREAKVQWKVDNALQSGNSQESVTEQDSKDSTYSLSSTLTLSKADYEKHKVYACEVTHQGLSSPVTKSFNRGEC
notes: Anti-IL15 antibody with Q311R, M428L, H433K, N434F
Turning to B1, in the assay with human FcRn [1], the “Fold Increase (FI) relative to Rituximab” value was found to be 38.1 fold and the dissociation constant Kd was found to be 55.9 nM.

B2: AB_TL1A_02_004 (antibody, human IgG1, kappa)
heavy: QVQLVQSGAEVKKPGASVKVSCKASGYDFTYYGISWVRQAPGQGLEWMGWISPYNGNTHYAQKLQGRVTMTTDTSTRTAYMELRSLRSDDTAVYYCARENYYGSGAYRGGMDVWGQGTTVTVSSASTKGPSVFPLAPSSKSTSGGTAALGCLVKDYFPEPVTVSWNSGALTSGVHTFPAVLQSSGLYSLSSVVTVPSSSLGTQTYICNVNHKPSNTKVDKKVEPKSCDKTHTCPPCPAPEAAGAPSVFLFPPKPKDTLMISRTPEVTCVVVDVSHEDPEVKFNWYVDGVEVHNAKTKPREEQYNSTYRVVSVLTVLHQDWLNGKEYKCKVSNKALPAPIEKTISKAKGQPREPQVYTLPPSREEMTKNQVSLTCLVKGFYPSDIAVEWESNGQPENNYKTTPPVLDSDGSFFLYSKLTVDKSRWQQGNVFSCSVMHEALHNHYTQKSLSLSPG
light: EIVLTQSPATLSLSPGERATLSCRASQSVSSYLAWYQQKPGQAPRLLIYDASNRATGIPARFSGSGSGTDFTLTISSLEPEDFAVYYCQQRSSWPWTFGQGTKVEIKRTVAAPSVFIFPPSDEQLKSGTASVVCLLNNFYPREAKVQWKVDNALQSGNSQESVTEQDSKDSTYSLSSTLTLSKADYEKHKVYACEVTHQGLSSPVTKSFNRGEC
With B2, the equilibrium dissociation constant (Kd) in [2] was < 0.0256 nM; with human FcRn [1] it was 2430 nM and 2240 nM; in assay [4], < 0.0469 nM; with human FcRn [6], 2430 nM and 2240 nM. Moreover, the IC50 in assay [3] lay within 0.92 to 1.01 nM; in [5] it was 1.2 to 1.51 nM.

B3: AB_TL1A_02_004 with a C-terminal fused assay tag (prokaryotic in vitro translation, BLI of Example 1) (antibody, human IgG1, kappa)
heavy: B2 heavy
light: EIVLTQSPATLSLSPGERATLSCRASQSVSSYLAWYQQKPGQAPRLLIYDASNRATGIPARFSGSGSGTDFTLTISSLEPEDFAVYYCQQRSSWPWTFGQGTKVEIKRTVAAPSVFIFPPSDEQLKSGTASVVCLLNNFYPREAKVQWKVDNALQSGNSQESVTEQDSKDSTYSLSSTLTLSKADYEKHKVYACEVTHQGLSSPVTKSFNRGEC
On to B3, for which, in assay [7], the Kd is 5.17 nM and 5 nM; the on-rate (kon) was determined as 380000 M⁻¹ s⁻¹.

B4: AB_TL1A_02_004_HL4 (antibody, human IgG1, kappa)
heavy: B2 heavy with H440K, N441F
light: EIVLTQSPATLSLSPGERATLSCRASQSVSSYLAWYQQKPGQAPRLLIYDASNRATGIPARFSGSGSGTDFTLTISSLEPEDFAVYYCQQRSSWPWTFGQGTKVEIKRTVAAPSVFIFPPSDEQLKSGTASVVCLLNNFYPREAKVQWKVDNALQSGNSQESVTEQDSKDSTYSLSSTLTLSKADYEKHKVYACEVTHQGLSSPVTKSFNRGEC
notes: built from the name and the HLE mutation column
For the molecule B4, in the assay with human FcRn [6], the “Fold Increase (FI) relative to RVT-3101” value is 18.5 fold and binding was characterised by a dissociation constant (Kd) of 132 nM.

B5: RVT-3101 (antibody, human IgG1, kappa)
heavy: B2 heavy with P53T, Q62R, K63M
light: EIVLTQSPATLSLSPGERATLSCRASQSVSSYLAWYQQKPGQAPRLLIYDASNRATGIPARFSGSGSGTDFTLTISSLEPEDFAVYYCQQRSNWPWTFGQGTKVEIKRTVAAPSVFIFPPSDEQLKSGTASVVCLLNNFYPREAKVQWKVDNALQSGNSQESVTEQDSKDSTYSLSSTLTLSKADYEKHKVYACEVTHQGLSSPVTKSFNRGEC
notes: Comparator anti-TL1A antibody, no HLE mutation; also called RVT-3101 (Roche); anti-TL1A comparator antibody
In the case of B5, in the assay with human FcRn [1], the “Fold Increase (FI) relative to Rituximab” value is 0.9 fold; the Kd was 2440 nM and 2450 nM and 2460 nM. In the assay with human FcRn [6], the “Fold Increase (FI) relative to RVT-3101” value worked out at 1 fold; the Kd is 2440 nM and 2450 nM and 2460 nM.

B6: AB_TL1A_02_004_HL3 (antibody, human IgG1, kappa)
heavy: B2 heavy with Q318R, M435L
light: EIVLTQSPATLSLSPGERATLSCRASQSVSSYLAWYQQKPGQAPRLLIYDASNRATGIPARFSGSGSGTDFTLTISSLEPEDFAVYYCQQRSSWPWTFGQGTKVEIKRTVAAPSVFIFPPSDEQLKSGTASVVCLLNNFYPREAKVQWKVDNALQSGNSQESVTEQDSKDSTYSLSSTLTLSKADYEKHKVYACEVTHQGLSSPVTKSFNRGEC
notes: as for B4
B6: in the assay with human FcRn [6], the “Fold Increase (FI) relative to RVT-3101” value is 5.3 fold and the Kd worked out at 461 nM.

B7: AB_TL1A_02_004_HL9 (antibody, human IgG1, kappa)
heavy: B2 heavy with Q318R, M435L, H440K, N441F
light: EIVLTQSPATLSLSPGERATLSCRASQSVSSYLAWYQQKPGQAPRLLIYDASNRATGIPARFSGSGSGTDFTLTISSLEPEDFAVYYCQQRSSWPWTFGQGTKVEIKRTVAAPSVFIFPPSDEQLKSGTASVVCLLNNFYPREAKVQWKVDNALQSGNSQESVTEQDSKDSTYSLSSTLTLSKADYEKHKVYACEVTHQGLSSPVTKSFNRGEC
notes: as for B4
With B7, the Kd is 36 nM and 43.3 nM with human FcRn [1]; 36 nM and 43.3 nM in the assay with human FcRn [6].

B8: AB_TL1A_02_004_HL2 (antibody, human IgG1, kappa)
heavy: B2 heavy with M435L, N441S
light: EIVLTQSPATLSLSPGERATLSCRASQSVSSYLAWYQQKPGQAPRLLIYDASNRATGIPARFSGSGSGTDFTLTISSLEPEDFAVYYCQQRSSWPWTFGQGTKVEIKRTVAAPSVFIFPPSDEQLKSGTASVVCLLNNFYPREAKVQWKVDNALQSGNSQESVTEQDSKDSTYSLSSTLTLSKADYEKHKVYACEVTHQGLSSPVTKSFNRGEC
notes: HLE mutations M428L, N434S
On to B8, for which, in [8], the “IC50 (nM), inhibition of TL1A-induced apoptosis of TF-1 cells (Caspase-Glo 3/7)” value was determined as 0.87 nM. For the same molecule, the “max inhibition of TL1A-induced apoptosis of TF-1 cells” value in assay [8] is 95%. Moreover, the dissociation constant (Kd) was 159 nM and 190 nM with human FcRn [9]; < 0.0262 nM in [2]; 159 nM and 190 nM with human FcRn [1]. Also, the concentration for half-maximal inhibition (IC50) in assay [3] is 0.58 nM; in assay [5], 1.3 nM.

B9: AB_IL13_TSLP_BsAb_ISTF_003_HL9 (bispecific antibody, human IgG1, kappa, L234A L235A)
heavy: EVQLVQSGAEVKKPGSSVKVSCKASGYTFSNYLIEWVRQAPGQGLEWIGVIDPGVGDTNYNENFKGRATLTADKSTSTAYIELSSLRSEDTAVYYCAREDNPGTAFDYWGQGTTVTVSSASTKGPSVFPLAPSSKSTSGGTAALGCLVKDYFPEPVTVSWNSGALTSGVHTFPAVLQSSGLYSLSSVVTVPSSSLGTQTYICNVNHKPSNTKVDKRVEPKSCDKTHTCPPCPAPEAAGGPSVFLFPPKPKDTLMISRTPEVTCVVVDVSHEDPEVKFNWYVDGVEVHNAKTKPREEQYNSTYRVVSVLTVLHRDWLNGKEYKCKVSNKALPAPIEKTISKAKGQPREPQVYTLPPCREEMTKNQVSLWCLVKGFYPSDIAVEWESNGQPENNYKTTPPVLDSDGSFFLYSKLTVDKSRWQQGNVFSCSVLHEALKFHYTQKSLSLSPGK
light: SIVMTQTPLSLSVTPGQPASISCKASQSVSSDVTWYLQKPGQSPQLLIYYVSEHYTGVPDRFSGSGYGTDFTLKISRVEAEDVGVYYCQQHHRFPLTFGQGTKLEIKRTVAAPSVFIFPPSDEQLKSGTASVVCLLNNFYPREAKVQWKVDNALQSGNSQESVTEQDSKDSTYSLSSTLTLSKADYEKHKVYACEVTHQGLSSPVTKSFNRGEC
scFv: DIQLTQSPSSLSASVGDRVTITCRASKSVDSYGNSFMHWYQQKPGKAPKLLIYLASNLESGVPSRFSGSGSGTDFTLTISSLQPEDFATYYCQQNNEDPRTFGCGTKVEIKGGGGSGGGGSGGGGSGGGGSEVQLQESGPGLVKPSETLSLTCTVSGFSLNAYSVNWIRQPPGKCLEWLGMIWGDGKIVYNSALKSRLTISKDSSKNQVSLKLSSVTAADTAVYYCAGDGYYPYAMRNWGQGTTVTVSSEPKSSDKTHTCPPCPAPEAAGGPSVFLFPPKPKDTLMISRTPEVTCVVVDVSHEDPEVKFNWYVDGVEVHNAKTKPREEQYNSTYRVVSVLTVLHRDWLNGKEYKCKVSNKALPAPIEKTISKAKGQPREPQVCTLPPSREEMTKNQVSLSCAVKGFYPSDIAVEWESNGQPENNYKTTPPVLDSDGSFFLVSKLTVDKSRWQQGNVFSCSVLHEALKFHYTQKSLSLSPGK
notes: Anti-TSLP Fab arm (HC + LC) and anti-IL13 scFv-Fc arm
Regarding B9, in the assay with human FcRn [1], the “Fold Increase (FI) relative to Rituximab” value worked out at 48.5 fold and binding was characterised by a dissociation constant (Kd) of 43.9 nM.
